US20230272050A1, “BINDING PROTEIN SPECIFIC FOR THE SPIKE PROTEIN OF SEVERE ACUTE RESPIRATORY SYNDROME CORONA VIRUS 2 (SARS-COV-2)” (priority 2020, published 2023)

Target: mutant of SARS CoV-2 S protein (69del, 70del, Y144del, N501Y, A570D, D614G, P681H, T7161, S982A, D1118H) (Severe acute respiratory syndrome coronavirus 2, UniProt P0DTC2, A570D/D1118H/D614G/DEL144-144/N501Y/P681H/S982A/T716I)

212434 (NAAVLDIAQHSATEEIWWLPNLTKQQKVWFIMSLTQDPSVSKEVLGEAQKLNDSQAPK) [compound 212434]
binding affinity to mutant S protein (B.1.1.7), qualitative: showed binding affinity
